Measured values reported in article PMC5639694 (Journal of medicinal chemistry, 2017).
Square brackets hold non-standard residues; d marks the D form. Dap = NC[C@H](N)C(=O)O

B1: c[Pro-His-DPhe-Arg-Trp-Asn-Ala-DPro] (peptide)
peptide: cyclo(PH[dF]RWNA[dP])
SMILES: C[C@@H]1NC(=O)[C@H](CC(N)=O)NC(=O)[C@H](Cc2c[nH]c3ccccc23)NC(=O)[C@H](CCCNC(=N)N)NC(=O)[C@@H](Cc2ccccc2)NC(=O)[C@H](Cc2c[nH]cn2)NC(=O)[C@@H]2CCCN2C(=O)[C@H]2CCCN2C1=O
B2: c[Pro-DPhe-Arg-Trp-Asn-Ala-Phe-DPro] (peptide)
peptide: cyclo(P[dF]RWNAF[dP])
SMILES: C[C@@H]1NC(=O)[C@H](CC(N)=O)NC(=O)[C@H](Cc2c[nH]c3ccccc23)NC(=O)[C@H](CCCNC(=N)N)NC(=O)[C@@H](Cc2ccccc2)NC(=O)[C@@H]2CCCN2C(=O)[C@H]2CCCN2C(=O)[C@H](Cc2ccccc2)NC1=O
B3: c[Pro-DPhe-Arg-Trp-Asn-Ala-DPro] (peptide)
peptide: cyclo(P[dF]RWNA[dP])
SMILES: C[C@@H]1NC(=O)[C@H](CC(N)=O)NC(=O)[C@H](Cc2c[nH]c3ccccc23)NC(=O)[C@H](CCCNC(=N)N)NC(=O)[C@@H](Cc2ccccc2)NC(=O)[C@@H]2CCCN2C(=O)[C@H]2CCCN2C1=O
B4: c[Pro-His-DPhe-Arg-Trp-Asn-Ala-Phe-DPro] (peptide)
peptide: cyclo(PH[dF]RWNAF[dP])
SMILES: C[C@@H]1NC(=O)[C@H](CC(N)=O)NC(=O)[C@H](Cc2c[nH]c3ccccc23)NC(=O)[C@H](CCCNC(=N)N)NC(=O)[C@@H](Cc2ccccc2)NC(=O)[C@H](Cc2c[nH]cn2)NC(=O)[C@@H]2CCCN2C(=O)[C@H]2CCCN2C(=O)[C@H](Cc2ccccc2)NC1=O
B5: c[Pro-DPhe-Arg-Trp-DPro] (peptide)
peptide: cyclo(P[dF]RW[dP])
SMILES: N=C(N)NCCC[C@@H]1NC(=O)[C@@H](Cc2ccccc2)NC(=O)[C@@H]2CCCN2C(=O)[C@H]2CCCN2C(=O)[C@H](Cc2c[nH]c3ccccc23)NC1=O

Key:
[1] = molecular target: T1, mMC4R (Mus musculus, UniProt P56450); conditions: read-out: mMC4R EC50; agonist; previously reported values; cited from earlier work
[2] = molecular target: mMC5R (Mus musculus, UniProt P41149); conditions: read-out: mMC5R EC50; agonist; previously reported values; cited from earlier work
[3] = molecular target: T1, mMC4R; conditions: AGRP/NDP-MSH chimeric ligands; cited from earlier work
[4] = molecular target: mouse melanocortin 3 receptor (mouse) (UniProt P33033)
[5] = molecular target: mouse melanocortin 5 receptor (mouse) (UniProt P41149)
[6] = molecular target: mouse melanocortin 1 receptor (mouse) (UniProt Q01727)
[7] = molecular target: mouse melanocortin 4 receptor (mouse) (UniProt P56450)
Chain of mouse melanocortin 4 receptor (mouse) (P56450 whole entry): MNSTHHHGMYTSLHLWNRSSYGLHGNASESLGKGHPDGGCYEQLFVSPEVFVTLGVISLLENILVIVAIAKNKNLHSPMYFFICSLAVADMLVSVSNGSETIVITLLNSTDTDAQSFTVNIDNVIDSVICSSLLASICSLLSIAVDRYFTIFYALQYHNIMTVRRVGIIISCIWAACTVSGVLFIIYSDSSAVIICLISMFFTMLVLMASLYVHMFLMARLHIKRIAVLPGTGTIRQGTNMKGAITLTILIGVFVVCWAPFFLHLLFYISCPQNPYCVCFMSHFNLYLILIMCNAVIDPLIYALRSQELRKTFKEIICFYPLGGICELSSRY

Chain of mouse melanocortin 5 receptor (mouse) (P41149 whole entry): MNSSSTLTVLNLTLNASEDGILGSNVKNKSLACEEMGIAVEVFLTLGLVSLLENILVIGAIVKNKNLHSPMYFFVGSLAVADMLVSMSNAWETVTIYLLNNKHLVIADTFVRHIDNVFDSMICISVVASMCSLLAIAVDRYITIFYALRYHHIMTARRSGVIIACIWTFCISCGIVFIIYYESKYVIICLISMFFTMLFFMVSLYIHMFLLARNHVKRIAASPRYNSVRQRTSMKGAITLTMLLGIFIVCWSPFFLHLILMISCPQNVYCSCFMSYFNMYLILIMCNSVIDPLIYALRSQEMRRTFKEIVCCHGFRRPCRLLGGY
Chain of mouse melanocortin 1 receptor (mouse) (Q01727 whole entry): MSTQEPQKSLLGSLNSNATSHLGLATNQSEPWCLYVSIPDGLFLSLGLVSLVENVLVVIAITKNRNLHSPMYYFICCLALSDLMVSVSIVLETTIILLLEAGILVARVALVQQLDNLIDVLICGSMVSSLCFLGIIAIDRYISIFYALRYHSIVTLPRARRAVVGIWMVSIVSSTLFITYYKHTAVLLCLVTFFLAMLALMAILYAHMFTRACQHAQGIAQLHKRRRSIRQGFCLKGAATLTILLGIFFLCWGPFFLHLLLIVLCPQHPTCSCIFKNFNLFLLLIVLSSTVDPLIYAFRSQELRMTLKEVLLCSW
T1 sequence (P56450 whole entry): as the sequence (P56450 whole entry) above
Chain of mouse melanocortin 3 receptor (mouse) (P33033 whole entry): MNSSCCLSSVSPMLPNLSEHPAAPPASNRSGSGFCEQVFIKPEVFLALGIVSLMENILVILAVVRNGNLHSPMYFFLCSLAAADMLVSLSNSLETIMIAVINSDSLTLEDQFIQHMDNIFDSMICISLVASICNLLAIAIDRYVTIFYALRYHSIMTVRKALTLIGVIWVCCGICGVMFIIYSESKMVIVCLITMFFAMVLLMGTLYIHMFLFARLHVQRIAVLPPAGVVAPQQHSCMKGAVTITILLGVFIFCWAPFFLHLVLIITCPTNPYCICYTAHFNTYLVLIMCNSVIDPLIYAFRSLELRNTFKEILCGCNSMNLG
Chain of mMC5R (P41149 whole entry): as the sequence (P41149 whole entry) above

Row | Molecule | agonist EC50 (cAMP AlphaScreen, HEK293 cells stably expressing the receptor) [5] [nM] | agonist EC50 (cAMP AlphaScreen, HEK293 cells stably expressing the receptor) [6] [nM] | agonist EC50 (cAMP AlphaScreen, HEK293 cells stably expressing the receptor) [7] [nM] | also measured
1 | CC(=O)N[C@@H](Cc1cnc[nH]1)C(=O)N[C@H](Cc1ccccc1)C(=O)N[C@@H](CCCN=C(N)N)C(=O)N[C@@H](Cc1c[nH]c2ccccc12)C(N)=O [HfRW, Ac-His-DPhe-Arg-Trp-NH2] |  |  |  | EC50 [1]: 14 ± 2 nM; EC50 [2]: 10 ± 3 nM
2 | Tyr-c[Asp-His-DPhe-Arg-Trp-Asn-Ala-Phe-Dap]-Tyr-NH2 |  |  |  | selectivity for the mMC4R over the mMC3R (reported) [3]: 5 fold
3 | Tyr-c[Cys-His-DPhe-Arg-Trp-Asn-Ala-Phe-Cys]-Tyr-NH2 |  |  |  | selectivity for the mMC4R over the mMC3R (reported) [3]: 7 fold
4 | cyclo(PH[dF]RW[Dap]AF[dP]) | 18 | 24 |  | agonist EC50 (cAMP AlphaScreen, HEK293 cells stably expressing the receptor) [4]: 260 nM
5 | cyclo(PH[dF]RW[Dap]A[dP]) |  | 1.1 | 1.6 | 
6 | cyclo(PH[dF]RW[Dap][dP]) | 330 | 460 | 950 | 
7 | cyclo(P[dF]RW[Dap]AF[dP]) | 46 |  |  | 
8 | cyclo(P[dF]RW[Dap]A[dP]) | 48 |  | 150 | 
9 | B1 | 2.1 | 12 | 29 | 
10 | cyclo(PH[dF]RWN[dP]) [c[Pro-His-DPhe-Arg-Trp-Asn-DPro]] | 16.8 |  | 170 | 
11 | B2 |  |  | 130 | 
12 | B3 |  |  | 420 | 
13 | B4 | 0.45 | 0.35 | 1.4 | agonist EC50 (cAMP AlphaScreen, HEK293 cells stably expressing the receptor) [4]: 32 nM
14 | B5 |  | 1800 |  | 
